What was measured:
[1] = biological target: T1, NY-ESO-1 peptide on HLA-B*07:02 (human); assay: cytokine release
T1 peptide: SLLMWITQC

[2] = biological target: T2, NY-ESO-1 peptide on HLA-A*02:01 (human); assay: multimer staining
T2 peptide: SLLMWITQC

[3] = biological target: T3, NY-ESO-1 peptide on HLA-A*02:01 (human (alpha3 domain mouse)); assay: activation reporter or marker
T3 peptide: SLLMWITQC

B1: TCR18168 (TCR, V domains shown)
Valpha: QSVAQPEDQVNVAEGNPLTVKCTYSVSGNPYLFWYVQYPNRGLQFLLKYITGDNLVKGSYGFEAEFNKSQTSFHLKKPSALVSDSALYFCAVRELYSGAGSYQLTFGKGTKLSVIP
Vbeta: QKPSRDICQRGTSLTIQCQVDSQVTMMFWYRQQPGQSLTLIATANQGSEATYESGFVIDKFPISRPNLTFSTLTVSNMSPEDSSIYLCSVGGAGVTDTQYFGPGTRLTVL
**Q.** What does the source list for B1?
**A.** binding result [1]: no recognition; binding result [2]: recognises; binding result [3]: recognises

B2: TCR0060 (TCR, V domains shown)
Valpha: QSVAQPEDQVNVAEGNPLTVKCTYSVSGNPYLFWYVQYPNRGLQFLLKYITGDNLVKGSYGFEAEFNKSQTSFHLKKPSALVSDSALYFCAVRELYSRGVKWQLTFGKGTKLSVIP
Vbeta: QKPSRDICQRGTSLTIQCQVDSQVTMMFWYRQQPGQSLTLIATANQGSEATYESGFVIDKFPISRPNLTFSTLTVSNMSPEDSSIYLCSVGGAGVTDTQYFGPGTRLTVL
**Q.** Does B2 bind [2]?
**A.** Result: recognises

B3: TCR0036 (TCR, V domains shown)
Valpha: QSVAQPEDQVNVAEGNPLTVKCTYSVSGNPYLFWYVQYPNRGLQFLLKYITGDNLVKGSYGFEAEFNKSQTSFHLKKPSALVSDSALYFCAVRDLTTGAGSYQLTFGKGTKLSVIP
Vbeta: QKPSRDICQRGTSLTIQCQVDSQVTMMFWYRQQPGQSLTLIATANQGSEATYESGFVIDKFPISRPNLTFSTLTVSNMSPEDSSIYLCSVGGAGVTDTQYFGPGTRLTVL
**Q.** Does B3 bind [2]?
**A.** Result: recognises

B4: TCR0028 (TCR, V domains shown)
Valpha: QSVAQPEDQVNVAEGNPLTVKCTYSVSGNPYLFWYVQYPNRGLQFLLKYITGDNLVKGSYGFEAEFNKSQTSFHLKKPSALVSDSALYFCAVRDMANGAGSYQLTFGKGTKLSVIP
Vbeta: QKPSRDICQRGTSLTIQCQVDSQVTMMFWYRQQPGQSLTLIATANQGSEATYESGFVIDKFPISRPNLTFSTLTVSNMSPEDSSIYLCSVGGAGVTDTQYFGPGTRLTVL
**Q.** Does B4 bind [2]?
**A.** Result: recognises

B5: TCR0070 (TCR, V domains shown)
Valpha: QSVAQPEDQVNVAEGNPLTVKCTYSVSGNPYLFWYVQYPNRGLQFLLKYITGDNLVKGSYGFEAEFNKSQTSFHLKKPSALVSDSALYFCAVRELYSATVDYQLTFGKGTKLSVIP
Vbeta: QKPSRDICQRGTSLTIQCQVDSQVTMMFWYRQQPGQSLTLIATANQGSEATYESGFVIDKFPISRPNLTFSTLTVSNMSPEDSSIYLCSVGGAGVTDTQYFGPGTRLTVL
**Q.** Does B5 bind [2]?
**A.** Result: recognises

B6: TCR0066 (TCR, V domains shown)
Valpha: QSVAQPEDQVNVAEGNPLTVKCTYSVSGNPYLFWYVQYPNRGLQFLLKYITGDNLVKGSYGFEAEFNKSQTSFHLKKPSALVSDSALYFCAVRELYSALVTYQLTFGKGTKLSVIP
Vbeta: QKPSRDICQRGTSLTIQCQVDSQVTMMFWYRQQPGQSLTLIATANQGSEATYESGFVIDKFPISRPNLTFSTLTVSNMSPEDSSIYLCSVGGAGVTDTQYFGPGTRLTVL
**Q.** Does B6 bind [2]?
**A.** Result: recognises

B7: TCR0068 (TCR, V domains shown)
Valpha: QSVAQPEDQVNVAEGNPLTVKCTYSVSGNPYLFWYVQYPNRGLQFLLKYITGDNLVKGSYGFEAEFNKSQTSFHLKKPSALVSDSALYFCAVRELYSPRLMWQLTFGKGTKLSVIP
Vbeta: QKPSRDICQRGTSLTIQCQVDSQVTMMFWYRQQPGQSLTLIATANQGSEATYESGFVIDKFPISRPNLTFSTLTVSNMSPEDSSIYLCSVGGAGVTDTQYFGPGTRLTVL
**Q.** Does B7 bind [2]?
**A.** Result: recognises

B8: TCR0030 (TCR, V domains shown)
Valpha: QSVAQPEDQVNVAEGNPLTVKCTYSVSGNPYLFWYVQYPNRGLQFLLKYITGDNLVKGSYGFEAEFNKSQTSFHLKKPSALVSDSALYFCAVRDSKAGAGSYQLTFGKGTKLSVIP
Vbeta: QKPSRDICQRGTSLTIQCQVDSQVTMMFWYRQQPGQSLTLIATANQGSEATYESGFVIDKFPISRPNLTFSTLTVSNMSPEDSSIYLCSVGGAGVTDTQYFGPGTRLTVL
**Q.** Does B8 bind [2]?
**A.** Result: recognises

B9: TCR0018 (TCR, V domains shown)
Valpha: QSVAQPEDQVNVAEGNPLTVKCTYSVSGNPYLFWYVQYPNRGLQFLLKYITGDNLVKGSYGFEAEFNKSQTSFHLKKPSALVSDSALYFCAVRDLSDGAGSYQLTFGKGTKLSVIP
Vbeta: QKPSRDICQRGTSLTIQCQVDSQVTMMFWYRQQPGQSLTLIATANQGSEATYESGFVIDKFPISRPNLTFSTLTVSNMSPEDSSIYLCSVGGAGVTDTQYFGPGTRLTVL
**Q.** Does B9 bind [2]?
**A.** Result: recognises

B10: TCR0024 (TCR, V domains shown)
Valpha: QSVAQPEDQVNVAEGNPLTVKCTYSVSGNPYLFWYVQYPNRGLQFLLKYITGDNLVKGSYGFEAEFNKSQTSFHLKKPSALVSDSALYFCAVRDQALGAGSYQLTFGKGTKLSVIP
Vbeta: QKPSRDICQRGTSLTIQCQVDSQVTMMFWYRQQPGQSLTLIATANQGSEATYESGFVIDKFPISRPNLTFSTLTVSNMSPEDSSIYLCSVGGAGVTDTQYFGPGTRLTVL
**Q.** Does B10 bind [2]?
**A.** Result: recognises

B11: TCR0062 (TCR, V domains shown)
Valpha: QSVAQPEDQVNVAEGNPLTVKCTYSVSGNPYLFWYVQYPNRGLQFLLKYITGDNLVKGSYGFEAEFNKSQTSFHLKKPSALVSDSALYFCAVRELYSTTFGWQLTFGKGTKLSVIP
Vbeta: QKPSRDICQRGTSLTIQCQVDSQVTMMFWYRQQPGQSLTLIATANQGSEATYESGFVIDKFPISRPNLTFSTLTVSNMSPEDSSIYLCSVGGAGVTDTQYFGPGTRLTVL
**Q.** Does B11 bind [2]?
**A.** Result: recognises

B12: TCR0050 (TCR, V domains shown)
Valpha: QSVAQPEDQVNVAEGNPLTVKCTYSVSGNPYLFWYVQYPNRGLQFLLKYITGDNLVKGSYGFEAEFNKSQTSFHLKKPSALVSDSALYFCAVRELYSVAVRYQLTFGKGTKLSVIP
Vbeta: QKPSRDICQRGTSLTIQCQVDSQVTMMFWYRQQPGQSLTLIATANQGSEATYESGFVIDKFPISRPNLTFSTLTVSNMSPEDSSIYLCSVGGAGVTDTQYFGPGTRLTVL
**Q.** Does B12 bind [2]?
**A.** Result: recognises

B13: TCR0014 (TCR, V domains shown)
Valpha: QSVAQPEDQVNVAEGNPLTVKCTYSVSGNPYLFWYVQYPNRGLQFLLKYITGDNLVKGSYGFEAEFNKSQTSFHLKKPSALVSDSALYFCAVRDLFTGAGSYQLTFGKGTKLSVIP
Vbeta: QKPSRDICQRGTSLTIQCQVDSQVTMMFWYRQQPGQSLTLIATANQGSEATYESGFVIDKFPISRPNLTFSTLTVSNMSPEDSSIYLCSVGGAGVTDTQYFGPGTRLTVL
**Q.** Does B13 bind [2]?
**A.** Result: recognises

B14: TCR0010 (TCR, V domains shown)
Valpha: QSVAQPEDQVNVAEGNPLTVKCTYSVSGNPYLFWYVQYPNRGLQFLLKYITGDNLVKGSYGFEAEFNKSQTSFHLKKPSALVSDSALYFCAVRDSFEGAGSYQLTFGKGTKLSVIP
Vbeta: QKPSRDICQRGTSLTIQCQVDSQVTMMFWYRQQPGQSLTLIATANQGSEATYESGFVIDKFPISRPNLTFSTLTVSNMSPEDSSIYLCSVGGAGVTDTQYFGPGTRLTVL
**Q.** Does B14 bind [2]?
**A.** Result: recognises

B15: TCR0012 (TCR, V domains shown)
Valpha: QSVAQPEDQVNVAEGNPLTVKCTYSVSGNPYLFWYVQYPNRGLQFLLKYITGDNLVKGSYGFEAEFNKSQTSFHLKKPSALVSDSALYFCAVRGLLNGAGSYQLTFGKGTKLSVIP
Vbeta: QKPSRDICQRGTSLTIQCQVDSQVTMMFWYRQQPGQSLTLIATANQGSEATYESGFVIDKFPISRPNLTFSTLTVSNMSPEDSSIYLCSVGGAGVTDTQYFGPGTRLTVL
**Q.** Does B15 bind [2]?
**A.** Result: recognises

B16: TCR0032 (TCR, V domains shown)
Valpha: QSVAQPEDQVNVAEGNPLTVKCTYSVSGNPYLFWYVQYPNRGLQFLLKYITGDNLVKGSYGFEAEFNKSQTSFHLKKPSALVSDSALYFCAVRDLFCGAGSYQLTFGKGTKLSVIP
Vbeta: QKPSRDICQRGTSLTIQCQVDSQVTMMFWYRQQPGQSLTLIATANQGSEATYESGFVIDKFPISRPNLTFSTLTVSNMSPEDSSIYLCSVGGAGVTDTQYFGPGTRLTVL
**Q.** Does B16 bind [2]?
**A.** Result: recognises

B17: TCR0022 (TCR, V domains shown)
Valpha: QSVAQPEDQVNVAEGNPLTVKCTYSVSGNPYLFWYVQYPNRGLQFLLKYITGDNLVKGSYGFEAEFNKSQTSFHLKKPSALVSDSALYFCAVRDDLVGAGSYQLTFGKGTKLSVIP
Vbeta: QKPSRDICQRGTSLTIQCQVDSQVTMMFWYRQQPGQSLTLIATANQGSEATYESGFVIDKFPISRPNLTFSTLTVSNMSPEDSSIYLCSVGGAGVTDTQYFGPGTRLTVL
**Q.** Does B17 bind [2]?
**A.** Result: recognises

B18: TCR0020 (TCR, V domains shown)
Valpha: QSVAQPEDQVNVAEGNPLTVKCTYSVSGNPYLFWYVQYPNRGLQFLLKYITGDNLVKGSYGFEAEFNKSQTSFHLKKPSALVSDSALYFCAVRSSYEGAGRYQLTFGKGTKLSVIP
Vbeta: QKPSRDICQRGTSLTIQCQVDSQVTMMFWYRQQPGQSLTLIATANQGSEATYESGFVIDKFPISRPNLTFSTLTVSNMSPEDSSIYLCSVGGAGVTDTQYFGPGTRLTVL
**Q.** Does B18 bind [2]?
**A.** Result: recognises

— patent US20200040358A1 (published 2020)
